How the values were obtained:
[1] = system: TS2126 RNA ligase 1 (Bacteriophage TS2126); settings: 5' phosphate; splintless circularization, 2.5 mM MnCl2, 50 uM ATP, 60 C, 2 h
[2] = system: RNA polymerase III (Homo sapiens); settings: HEK293T WCE transcription; mainly single round
[3] = system: RNA polymerase III (Homo sapiens); settings: 90 min IVT from 100 nM coligo; 6 mM MgCl2; abolished by 120 ug/ml alpha-amanitin
[4] = biological target: RNA polymerase II (UniProt P04050;P08518;P16370;P20433;P20434;P20435;P34087;P20436;P27999;P22139;P38902;P40 …); test: in vitro transcription processivity, 1 uM template, 37 C; settings: tags: yeast RNAP II from D. Bushnell and R. Kornberg; circular, stem-loop
Source text: (§1) Chem. Soc. 117, 7818-7819 (1995)) (FIG. 5b, gel region “a”). As a relative measure of transcriptional processivity, we calculated the ratio of the radioactivity incorporated in the rolling circle transcripts (FIG. 5b, gel region “a” in lanes 3, 6, 9) to the sum of all shorter transcripts (gel region “b”). Lower a/b ratios indicate lower processivity. […] Thus, the ability to initiate promoterless transcription on coligo templates appears to have been retained during RNAP evolution, while the processivity needed for RCT appears to have been lost.
(§2) In vitro transcription (IVT). IVT using WCE, uniform labeling with [α-³²P]-UTP and the linear or circular (coligo) templates was performed as follows. A typical 20 μl reaction contained 25 μg total WCE protein, 20 units RNase inhibitor (Promega) 1.25 mM each ATP, CTP, GTP, 0.2 mM UTP, (except FIG. 5b, which contained 1.25 mM each NTP), ˜2 μCi [α-³²P]-UTP, 40 mM Tris-HCl pH 7.9, 6 mM MgCl₂, 10 mM DTT, 2 mM spermidine, 100 μM NaCl); 100 nM template unless otherwise indicated. IVT using E. coli RNA polymerase (USB) was carried out in 40 mM Tris-HCl, pH 8.0, 10 mM MgCl₂, 5 mM DTT, 50 mM KCl, 50 μg/ml BSA), 1 μM coligo template, 1.25 mM NTP, ˜2 μCi [α-³²P]-UTP, 1 unit/μl RNAse inhibitor. […] Images and quantitation were performed using MD ImageQuant software. […]

[5] = biological target: RNA polymerase (Escherichia coli, UniProt P0A7Z4;P0A8V2;P0A8T7;P0A800 P0A7Z4:1-329,P0A8V2:1-1342,P0A8T7:1-1407,P0A800:2-91); test: in vitro transcription processivity, 10 mM MgCl2, 37 C; settings: tags: USB; chain copies: 2,1,1,1; circular, stem-loop
RNA polymerase, sequence (P0A7Z4 whole entry, chain 1 of 4): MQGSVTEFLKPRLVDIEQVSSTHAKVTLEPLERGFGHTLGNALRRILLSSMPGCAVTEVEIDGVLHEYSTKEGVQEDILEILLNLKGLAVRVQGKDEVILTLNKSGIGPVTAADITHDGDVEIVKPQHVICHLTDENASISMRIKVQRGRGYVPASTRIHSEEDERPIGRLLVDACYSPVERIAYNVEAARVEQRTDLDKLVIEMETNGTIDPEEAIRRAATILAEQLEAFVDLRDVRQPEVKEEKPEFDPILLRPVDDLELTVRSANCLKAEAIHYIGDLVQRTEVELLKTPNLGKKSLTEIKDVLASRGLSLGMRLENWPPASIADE
RNA polymerase, sequence (P0A8V2 whole entry, chain 2 of 4): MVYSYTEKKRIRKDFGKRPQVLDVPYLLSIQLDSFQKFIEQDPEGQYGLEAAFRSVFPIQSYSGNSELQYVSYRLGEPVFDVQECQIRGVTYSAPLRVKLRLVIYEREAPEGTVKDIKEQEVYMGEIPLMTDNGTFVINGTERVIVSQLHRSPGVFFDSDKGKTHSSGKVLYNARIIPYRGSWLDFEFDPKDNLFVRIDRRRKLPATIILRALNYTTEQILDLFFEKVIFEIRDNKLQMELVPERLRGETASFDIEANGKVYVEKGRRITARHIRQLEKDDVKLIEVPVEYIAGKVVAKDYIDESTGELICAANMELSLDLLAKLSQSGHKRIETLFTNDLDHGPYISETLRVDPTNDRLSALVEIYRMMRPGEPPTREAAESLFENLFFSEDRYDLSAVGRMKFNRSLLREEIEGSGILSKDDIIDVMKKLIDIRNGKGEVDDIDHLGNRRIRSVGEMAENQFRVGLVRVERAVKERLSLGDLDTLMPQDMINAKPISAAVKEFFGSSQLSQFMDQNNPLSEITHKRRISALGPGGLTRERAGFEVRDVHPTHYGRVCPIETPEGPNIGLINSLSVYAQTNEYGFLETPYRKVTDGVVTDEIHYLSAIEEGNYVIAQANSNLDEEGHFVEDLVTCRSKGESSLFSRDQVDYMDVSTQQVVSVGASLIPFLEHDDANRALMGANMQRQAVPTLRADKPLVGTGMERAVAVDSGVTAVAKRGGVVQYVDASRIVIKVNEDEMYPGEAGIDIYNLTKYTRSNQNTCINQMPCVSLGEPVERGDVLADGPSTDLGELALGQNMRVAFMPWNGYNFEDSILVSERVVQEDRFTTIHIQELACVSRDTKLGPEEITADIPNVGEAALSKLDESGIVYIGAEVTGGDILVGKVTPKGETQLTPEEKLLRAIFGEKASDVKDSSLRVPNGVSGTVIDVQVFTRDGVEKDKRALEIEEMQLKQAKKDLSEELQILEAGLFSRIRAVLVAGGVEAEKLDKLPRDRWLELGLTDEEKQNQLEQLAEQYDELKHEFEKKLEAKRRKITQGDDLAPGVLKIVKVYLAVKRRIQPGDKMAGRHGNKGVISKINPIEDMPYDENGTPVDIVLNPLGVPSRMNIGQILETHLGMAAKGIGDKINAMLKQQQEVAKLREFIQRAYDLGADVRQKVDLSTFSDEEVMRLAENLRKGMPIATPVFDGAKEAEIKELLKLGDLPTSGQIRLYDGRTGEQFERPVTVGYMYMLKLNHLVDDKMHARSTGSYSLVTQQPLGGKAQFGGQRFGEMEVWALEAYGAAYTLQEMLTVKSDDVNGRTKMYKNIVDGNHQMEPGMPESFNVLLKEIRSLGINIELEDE
RNA polymerase, sequence (P0A8T7 whole entry, chain 3 of 4): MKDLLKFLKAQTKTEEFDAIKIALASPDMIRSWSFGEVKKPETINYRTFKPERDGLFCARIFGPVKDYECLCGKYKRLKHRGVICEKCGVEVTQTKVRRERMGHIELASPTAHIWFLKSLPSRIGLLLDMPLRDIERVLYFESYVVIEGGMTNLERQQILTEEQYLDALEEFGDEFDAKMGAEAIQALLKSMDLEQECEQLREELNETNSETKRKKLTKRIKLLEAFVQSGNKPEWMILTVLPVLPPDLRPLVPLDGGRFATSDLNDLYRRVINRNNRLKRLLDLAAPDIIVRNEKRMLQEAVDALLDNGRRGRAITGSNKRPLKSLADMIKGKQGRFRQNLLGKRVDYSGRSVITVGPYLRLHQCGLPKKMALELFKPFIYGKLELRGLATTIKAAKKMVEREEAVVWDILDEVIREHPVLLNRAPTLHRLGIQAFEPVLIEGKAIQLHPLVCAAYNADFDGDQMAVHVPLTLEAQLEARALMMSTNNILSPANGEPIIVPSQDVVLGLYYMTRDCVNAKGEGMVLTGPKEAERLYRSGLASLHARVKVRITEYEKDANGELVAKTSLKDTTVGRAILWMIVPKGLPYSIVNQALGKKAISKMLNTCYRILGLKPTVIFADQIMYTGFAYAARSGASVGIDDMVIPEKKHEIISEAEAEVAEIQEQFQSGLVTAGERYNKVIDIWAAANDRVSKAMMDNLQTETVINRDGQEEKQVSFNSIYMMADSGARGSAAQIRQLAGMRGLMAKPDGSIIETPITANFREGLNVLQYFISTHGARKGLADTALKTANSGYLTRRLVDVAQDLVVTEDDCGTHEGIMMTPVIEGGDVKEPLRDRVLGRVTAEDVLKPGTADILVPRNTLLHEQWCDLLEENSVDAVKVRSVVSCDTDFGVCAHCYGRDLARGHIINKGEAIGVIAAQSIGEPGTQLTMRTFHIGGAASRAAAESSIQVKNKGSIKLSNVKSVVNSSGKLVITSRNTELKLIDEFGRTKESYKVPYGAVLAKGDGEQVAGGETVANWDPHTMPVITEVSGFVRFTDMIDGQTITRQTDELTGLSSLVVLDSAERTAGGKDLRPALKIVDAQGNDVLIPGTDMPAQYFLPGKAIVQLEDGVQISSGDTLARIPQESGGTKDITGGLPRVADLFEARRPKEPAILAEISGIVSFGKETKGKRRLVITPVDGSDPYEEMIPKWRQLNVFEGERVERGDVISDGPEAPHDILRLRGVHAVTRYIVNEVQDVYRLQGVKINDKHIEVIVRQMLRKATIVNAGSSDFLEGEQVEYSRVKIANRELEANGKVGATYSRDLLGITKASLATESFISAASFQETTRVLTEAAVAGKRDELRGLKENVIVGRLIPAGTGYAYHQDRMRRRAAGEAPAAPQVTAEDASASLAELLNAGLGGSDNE
RNA polymerase, sequence (P0A800 2-91, chain 4 of 4): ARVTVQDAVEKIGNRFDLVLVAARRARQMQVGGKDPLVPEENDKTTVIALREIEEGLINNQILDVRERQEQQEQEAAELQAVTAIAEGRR
Source text: as §1, §2

With “CTCAGATCTGCCTGCAACTATGCAAAACTAACAGAGGACTGCAAACAAAAACTAGAAGGAAATAGCAGGCCACCATCAGTTTTGCATAGATTTGCACAACGGCAGAGAGCTCCCAGG [linear 19aTAR]” as the molecule, how does the activity (% cyclization) [1] read?
Its activity (% cyclization) is 73.

With “TTGCCTAGCAGTAGCTATTTAGTGTGATAATGGCGTTTGATAGTTTAGACACAAACACCATTGTCACACTCCACAGCTCTGCTAAGGAA [coligo 122]” as the molecule, how does the binding signal (RCT/short transcript ratio) [2] read?
The binding signal (RCT/short transcript ratio) was 0.01.

Which activity (nM transcript) [3] does the source give for “CTCAGATCTGCCTGCAACTATGCAAAACTAACAGAGGACTGCAAACAAAAACTAGAAGGAAATAGCAGGCCACCATCAGTTTTGCATAGATTTGCACAACGGCAGAGAGCTCCCAGG [coligo 19aTAR (19am)]” here?
The activity (nM transcript) was 0.6.

B1: coligo 122 (structured_DNA)
DNA: TTGCCTAGCAGTAGCTATTTAGTGTGATAATGGCGTTTGATAGTTTAGACACAAACACCATTGTCACACTCCACAGCTCTGCTAAGGAA
Which results are given for B1?
transcriptional processivity (rolling-circle/short transcript ratio) [4]: 0.3 RCT/short transcript ratio; binding signal [5]: 2.3 RCT/short transcript ratio
